Test [1] has as its target Env on the surface of HIV-1 AE.CM235-infected cells (HIV-1 AE.CM235). Kind of test: cell-based or functional assay.
Test [2] deals with HIV-1 B.JRFL gp120 Env (HIV-1 B.JRFL). Kind of test: blocking assay on JRFL gp120, competitor b12.
For test [3], the target named is HIV-1 AE.A244 gp120 envelope glycoprotein (HIV-1 AE.A244). Kind of test: blocking assay on A244 gp120, competitor sCD4.
Test [4] deals with recombinant AE.A244 Δ11 gp120 (HIV-1 AE.A244). Kind of test: SPR (BIAcore 3000), mAb captured by anti-human Ig Fc, gp120 in flow.
For test [5] the target is unchanged. Kind of test: SPR synergy assay (BIAcore 4000), CH58 immobilized on CM5 chip, mAb-gp120 complex injected.
Test [6] addresses Env on the surface of HIV-1 AE.92TH023-infected primary CD4+ T cells (HIV-1 AE.92TH023). Kind of test: flow cytometry, Alexa Fluor 488-CH58 with CH90 F(ab), HIV-1-infected CD4+ T cells (FIG. 14B-E).
Test [7] deals with Env on the surface of HIV-1 AE.CM235-infected cells (HIV-1 AE.CM235). The description is as above.
Test [8] has the same target. Kind of test: flow cytometry, Alexa Fluor 488-CH58 with unconjugated mAb, 10 µg/ml each, AE.CM235-infected CD4+ T cells. A general note: Flow cytometry measures light scatter and fluorescence of single cells or particles in a stream.
Test [9] has as its target Env on the surface of HIV-1 AE.92TH023-infected primary CD4+ T cells (HIV-1 AE.92TH023). Kind of test: flow cytometry, Alexa Fluor 488-CH58 with unconjugated mAb, 10 µg/ml each, AE.92TH023-infected CD4+ T cells.
The target of test [10] is HIV-1 B.JRFL gp120 Env (HIV-1 B.JRFL). Kind of test: blocking assay on JRFL gp120, competitor sCD4.

The term Kd denotes a measure of binding affinity in units of concentration. Broadly, the koff is a measure of how fast the partners let go of each other. As a reminder, the kon is the second-order rate constant of association.

For the substance A32 (antibody), in [1], the ADCC EC (3 hr Luciferase ADCC) worked out at 0.003 µg/mL and the maximum % GzB activity (ADCC-CM235 assay) is 16%. In [2], this substance had a % blocking of b12 binding of 23%. Moreover, the % blocking of sCD4 binding in [3] is 29%. Also, in test [4], the equilibrium dissociation constant (Kd) was 0.7 nM, the koff was found to be 0.00015 s⁻¹ and the kon was 223000 M⁻¹ s⁻¹.

As for A32 Fab, the inhibition of the ADCC activity mediated by 19/20 non-V3 mAbs (ADCC-CM235 assay) in [1] lay in the range of 73 to 100%.

In test [1], CH58 (antibody) yielded a % Max Killing, mAb alone (Luciferase ADCC) of 18.8%; an ADCC EC (3 hr Luciferase ADCC) of 9.68 µg/mL; an EC, mAb alone (Luciferase ADCC) of 9.13 µg/mL; a PC75, mAb alone (Luciferase ADCC) of 31.4 µg/mL. Besides, in [4], the dissociation constant Kd is 1 nM, the koff amounted to 0.00023 s⁻¹ and the on-rate constant (kon) was 226000 M⁻¹ s⁻¹. Further, in [5], the % increase in binding with gp120 pre-incubated with CH54, against gp120 with murine 16H3 mAb was found to be 14%; the % increase in binding with gp120 pre-incubated with CH57, against gp120 with murine 16H3 mAb came to 59%; the % increase in binding with gp120 pre-incubated with CH90, against gp120 with murine 16H3 mAb was found to be 12%. Further, the % enhancement of CH58 binding in the presence of CH90 F(ab) in [6] was less than 10%. Also, the % enhancement of CH58 binding in the presence of CH90 F(ab) in [7] was less than 10%. For the same substance, in [8], the % increase in frequency of infected cells recognized by CH58 and in MFI in the presence of A32 is less than 45%; the % increase of CH58 binding in the presence of CH54 is more than 20%; the % increase of CH58 binding in the presence of CH57 is more than 25%; the % increase of CH58 binding in the presence of CH90 was more than 35%. In [9], the % increase in the frequency of cells recognized by CH58 in the presence of A32, against CH58 alone is more than 40%; the % increase in the frequency of cells recognized by CH58 in the presence of CH57, against CH58 alone is more than 40%; the % increase in the frequency of cells recognized by CH58 in the presence of CH90, against CH58 alone was more than 40%.

For VRC-CH31 (antibody), the % blocking of b12 binding in test [2] is 70%. Moreover, the results for the % blocking of sCD4 binding in test [3] and in test [10] were 97% and 67%, respectively.

These data come from patent US20150239961A1.
